Patent US20150344570A1 (published 2015)

T1: FcγRIIb (human, UniProt P31994 43-217)
T1 construct: extracellular domain; also called 2b; not shown: His tag at the C terminus
T1 sequence (looked up): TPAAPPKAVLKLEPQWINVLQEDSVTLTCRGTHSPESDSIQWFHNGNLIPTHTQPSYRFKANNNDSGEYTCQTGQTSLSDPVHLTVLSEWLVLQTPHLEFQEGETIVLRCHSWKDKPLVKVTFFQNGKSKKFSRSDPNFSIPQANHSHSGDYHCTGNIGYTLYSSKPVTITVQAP

T2: FcγRIIa H (human, UniProt P12318 34-217)
T2 construct: extracellular domain; also called FcγRIIa type H; 2aH; not shown: His tag at the C terminus
T2 sequence (looked up): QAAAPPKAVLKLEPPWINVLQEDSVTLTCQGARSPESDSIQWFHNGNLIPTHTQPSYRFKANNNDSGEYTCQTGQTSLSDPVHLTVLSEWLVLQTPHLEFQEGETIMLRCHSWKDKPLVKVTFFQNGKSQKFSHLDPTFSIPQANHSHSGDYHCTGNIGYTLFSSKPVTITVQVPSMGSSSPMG

T3: human FcγRIIb extracellular domain with C-terminal His tag (human, UniProt P31994 43-217)
T3 construct: extracellular domain; also called FcgRIIb; 2b; not shown: His tag attached to the C terminus
T3 sequence (looked up): T1 sequence (looked up)

B1: GpH7-A5/GpH7-B3 variant I332_19Q/GpL16-k0 (antibody, human IgG1, kappa)
heavy 1: not shown
heavy 2: not shown
light: DIVMTQSPLSLPVTPGEPASISCQASESLVHSNRNTYLHWYLQKPGQSPQLLIYKVSNRFSGVPDRFSGSGSGTDFTLKISRVEAEDVGVYYCSQNTHVPPTFGQGTKVEIERTVAAPSVFIFPPSDEQLKSGTASVVCLLNNFYPREAKVQWKVDNALQSGNSQESVTEQDSKDSTYSLSSTLTLSKADYEKHKVYACEVTHQGLSSPVTKSFNRGEC
notes: Heterodimerized IgG1; mutation in the GpH7-B3 chain only; also called He Ab
B2: GpH7-B3 variant L328_03V/GpL16-k0 (Ho Ab) (antibody, human IgG1, kappa)
heavy: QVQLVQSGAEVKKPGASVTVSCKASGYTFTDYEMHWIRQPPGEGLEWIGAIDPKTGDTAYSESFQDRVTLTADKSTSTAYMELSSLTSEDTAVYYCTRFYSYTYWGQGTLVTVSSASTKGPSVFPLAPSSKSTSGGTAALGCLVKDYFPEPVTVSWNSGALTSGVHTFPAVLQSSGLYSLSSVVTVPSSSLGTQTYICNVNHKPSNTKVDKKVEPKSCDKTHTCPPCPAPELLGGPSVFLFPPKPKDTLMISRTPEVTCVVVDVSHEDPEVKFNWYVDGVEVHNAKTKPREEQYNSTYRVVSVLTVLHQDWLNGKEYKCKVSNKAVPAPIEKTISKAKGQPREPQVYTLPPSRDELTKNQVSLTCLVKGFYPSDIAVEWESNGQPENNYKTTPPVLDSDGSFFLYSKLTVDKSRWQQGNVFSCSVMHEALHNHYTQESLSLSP
light: B1 light
notes: Anti-glypican-3 IgG1; mutation in both H chains; also called L328V homodimerized antibody
B3: GpH7-A5/GpH7-B3 variant S324_20W/GpL16-k0 (antibody, human IgG1, kappa)
heavy 1: not shown
heavy 2: not shown
light: B1 light
notes: as for B1
B4: GpH7-B3 variant L328_15Y/GpL16-k0 (Ho Ab) (antibody, human IgG1, kappa)
heavy: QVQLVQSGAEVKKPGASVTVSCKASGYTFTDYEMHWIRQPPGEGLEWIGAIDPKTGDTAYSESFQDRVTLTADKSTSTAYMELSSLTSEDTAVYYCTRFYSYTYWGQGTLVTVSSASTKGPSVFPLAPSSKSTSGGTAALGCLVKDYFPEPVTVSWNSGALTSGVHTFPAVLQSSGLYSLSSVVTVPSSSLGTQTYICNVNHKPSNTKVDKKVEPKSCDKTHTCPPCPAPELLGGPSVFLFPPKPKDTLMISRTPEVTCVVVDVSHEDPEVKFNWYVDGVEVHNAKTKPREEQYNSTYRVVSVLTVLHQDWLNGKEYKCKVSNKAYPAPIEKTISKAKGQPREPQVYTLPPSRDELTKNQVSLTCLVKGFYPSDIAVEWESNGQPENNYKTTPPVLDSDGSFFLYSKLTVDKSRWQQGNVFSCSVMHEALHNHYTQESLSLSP
light: B1 light
notes: Anti-glypican-3 IgG1; mutation in both H chains; also called L328Y homodimerized antibody
B5: GpH7-B3 variant L328_19Q/GpL16-k0 (Ho Ab) (antibody, human IgG1, kappa)
heavy: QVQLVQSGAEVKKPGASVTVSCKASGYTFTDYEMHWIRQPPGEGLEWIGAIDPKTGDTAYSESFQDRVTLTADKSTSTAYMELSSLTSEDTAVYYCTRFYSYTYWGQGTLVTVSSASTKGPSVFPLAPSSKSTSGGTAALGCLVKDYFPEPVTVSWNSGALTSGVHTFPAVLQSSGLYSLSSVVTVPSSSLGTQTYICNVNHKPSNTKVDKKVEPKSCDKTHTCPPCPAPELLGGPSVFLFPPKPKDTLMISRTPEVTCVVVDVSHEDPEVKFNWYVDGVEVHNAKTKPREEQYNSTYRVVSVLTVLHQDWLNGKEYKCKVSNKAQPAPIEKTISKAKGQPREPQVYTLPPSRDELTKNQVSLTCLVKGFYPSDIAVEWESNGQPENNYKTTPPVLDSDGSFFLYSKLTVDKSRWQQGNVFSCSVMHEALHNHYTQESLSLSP
light: B1 light
notes: Anti-glypican-3 IgG1; mutation in both H chains; also called L328Q homodimerized antibody
B6: GpH7-A5/GpH7-B3 variant Y296_16H/GpL16-k0 (antibody, human IgG1, kappa)
heavy 1: not shown
heavy 2: not shown
light: B1 light
notes: as for B1
B7: GpH7-A5/GpH7-B3 variant T335_01G/GpL16-k0 (antibody, human IgG1, kappa)
heavy 1: not shown
heavy 2: not shown
light: B1 light
notes: as for B1
B8: GpH7-A5/GpH7-B3 variant Q295_07I/GpL16-k0 (antibody, human IgG1, kappa)
heavy 1: not shown
heavy 2: not shown
light: B1 light
notes: as for B1
B9: GpH7-A5/GpH7-B3 variant I336_18N/GpL16-k0 (antibody, human IgG1, kappa)
heavy 1: not shown
heavy 2: not shown
light: B1 light
notes: as for B1
B10: GpH7-B3 variant L328_14T/GpL16-k0 (Ho Ab) (antibody, human IgG1, kappa)
heavy: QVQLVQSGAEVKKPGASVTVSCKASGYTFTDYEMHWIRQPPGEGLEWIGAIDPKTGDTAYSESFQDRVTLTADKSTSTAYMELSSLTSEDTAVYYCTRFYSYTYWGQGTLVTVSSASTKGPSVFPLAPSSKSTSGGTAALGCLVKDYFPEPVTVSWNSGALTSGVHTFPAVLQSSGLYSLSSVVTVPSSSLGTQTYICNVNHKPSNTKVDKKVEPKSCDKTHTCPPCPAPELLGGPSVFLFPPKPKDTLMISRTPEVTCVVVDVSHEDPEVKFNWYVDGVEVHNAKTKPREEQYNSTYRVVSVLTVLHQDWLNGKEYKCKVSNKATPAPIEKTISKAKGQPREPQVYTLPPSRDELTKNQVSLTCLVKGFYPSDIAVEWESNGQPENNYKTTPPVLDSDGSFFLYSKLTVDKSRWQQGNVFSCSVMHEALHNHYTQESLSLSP
light: B1 light
notes: Anti-glypican-3 IgG1; mutation in both H chains; also called L328T homodimerized antibody
B11: GpH7-A5/GpH7-B3 variant T335_02A/GpL16-k0 (antibody, human IgG1, kappa)
heavy 1: not shown
heavy 2: not shown
light: B1 light
notes: as for B1
B12: GpH7-A5/GpH7-B3 variant Y300_07I/GpL16-k0 (antibody, human IgG1, kappa)
heavy 1: not shown
heavy 2: not shown
light: B1 light
notes: as for B1
B13: GpH7-A5/GpH7-B3 variant Q295_05P/GpL16-k0 (antibody, human IgG1, kappa)
heavy 1: not shown
heavy 2: not shown
light: B1 light
notes: as for B1
B14: GpH7-A5/GpH7-B3 variant S324_16H/GpL16-k0 (antibody, human IgG1, kappa)
heavy 1: not shown
heavy 2: not shown
light: B1 light
notes: as for B1
B15: GpH7-B3 variant P238_08L/GpL16-k0 (Ho Ab) (antibody, human IgG1, kappa)
heavy: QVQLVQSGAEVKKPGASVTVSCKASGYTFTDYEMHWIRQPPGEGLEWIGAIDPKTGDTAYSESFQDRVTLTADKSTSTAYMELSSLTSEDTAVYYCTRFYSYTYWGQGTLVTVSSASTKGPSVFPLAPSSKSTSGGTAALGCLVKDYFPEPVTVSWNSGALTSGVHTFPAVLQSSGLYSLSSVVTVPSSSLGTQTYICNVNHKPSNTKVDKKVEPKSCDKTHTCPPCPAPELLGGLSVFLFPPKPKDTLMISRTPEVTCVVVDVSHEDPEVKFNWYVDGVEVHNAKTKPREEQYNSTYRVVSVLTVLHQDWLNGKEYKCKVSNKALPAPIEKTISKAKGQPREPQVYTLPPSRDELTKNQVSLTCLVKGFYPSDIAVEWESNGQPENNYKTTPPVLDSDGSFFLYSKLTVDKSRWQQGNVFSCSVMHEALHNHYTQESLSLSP
light: B1 light
notes: Anti-glypican-3 IgG1; mutation in both H chains; also called P238L homodimerized antibody
B16: GpH7-A5/GpH7-B3 variant S324_10E/GpL16-k0 (antibody, human IgG1, kappa)
heavy 1: not shown
heavy 2: not shown
light: B1 light
notes: as for B1
B17: GpH7-A5/GpH7-B3 variant Y300_08L/GpL16-k0 (antibody, human IgG1, kappa)
heavy 1: not shown
heavy 2: not shown
light: B1 light
notes: as for B1
B18: GpH7-A5/GpH7-B3 variant S324_15Y/GpL16-k0 (antibody, human IgG1, kappa)
heavy 1: not shown
heavy 2: not shown
light: B1 light
notes: as for B1
B19: GpH7-A5/GpH7-B3 variant S324_09D/GpL16-k0 (antibody, human IgG1, kappa)
heavy 1: not shown
heavy 2: not shown
light: B1 light
notes: as for B1

Legend:
FcγRIIb = biological target: T1, FcγRIIb; assay: SPR (Biacore), antibody captured, FcγR as analyte; binding relative to GpH7-A5/GpH7-B3/GpL16-k0 = 100
Experimental: (§1) The heterodimerized antibodies He Abs in which one of the H chains was introduced with an alteration were assayed for their binding activities to each activating FcγR and inhibitory FcγR according to the method described in Example 4. […] The activating FcγRs in FIGS. 26, 27, 28, and 29 are FcγRIa, FcγRIIa (R), FcγRIIa (H), and FcγRIIIa, respectively.
(§2) Analysis of interaction between objective antibody and the FcγR was carried out using Biacore T100 (GE Healthcare). HBS-EP+ (GE Healthcare) was used as the running buffer, and the measurement temperature was set to 25° C. Chips produced by immobilizing the antigen peptide by the amine coupling method to a Series S Sencor Chip CM5 (GE Healthcare), or alternatively, chips produced by allowing preliminarily biotinylated antigen peptides to interact with and immobilize onto a Series S Sensor Chip SA (certified) (GE Healthcare) were used. Antibodies of interest were captured onto an antigen peptide-immobilized chip, and allowed to interact to each FcγR diluted with running buffer. To regenerate and repeatedly use the chip, the antibodies captured on the chip were washed off by reacting 10 mM glycine-HCl, pH 1.5.

FcγRIIa H = biological target: T2, FcγRIIa H; assay: as above
Experimental: as §1, §2

[1] = biological target: T3, human FcγRIIb extracellular domain with …; assay: SPR (Biacore T100), antibody captured on antigen peptide chip, FcγRIIb as analyte; relative binding
Experimental: as §2

| Binder | He/Con_2b (FcγRIIb) | He/Con_2aH (FcγRIIa H) | Ho/Con_2b [1] |
| --- | --- | --- | --- |
| B1 | 94.3 % of control | 108 % of control |  |
| B2 |  |  | 135 % of control GpH7-B3/GpL16-k0 (=100) |
| B3 | 87.5 % of control | 103 % of control |  |
| B4 |  |  | 272 % of control GpH7-B3/GpL16-k0 (=100) |
| B5 |  |  | 111 % of control GpH7-B3/GpL16-k0 (=100) |
| B6 | 92.2 % of control | 104 % of control |  |
| B7 | 96.7 % of control | 103 % of control |  |
| B8 | 84.3 % of control | 102 % of control |  |
| B9 | 97.6 % of control | 103 % of control |  |
| B10 |  |  | 146 % of control GpH7-B3/GpL16-k0 (=100) |
| B11 | 94 % of control | 101 % of control |  |
| B12 | 74.5 % of control | 108 % of control |  |
| B13 | 67.5 % of control | 103 % of control |  |
| B14 | 83.5 % of control | 102 % of control |  |
| B15 |  |  | 235 % of control GpH7-B3/GpL16-k0 (=100) |
| B16 | 77.4 % of control | 103 % of control |  |
| B17 | 73.6 % of control | 108 % of control |  |
| B18 | 88.2 % of control | 102 % of control |  |
| B19 | 85.8 % of control | 106 % of control |  |
